Measurements: article PMC8986121

Columns and labels:
Glu49 = test: NMR; conditions: 300 K, not stated (50 mM phosphate buffers), 50 mM phosphate buffers at different pH, micelle-bound
Glu59 = test: NMR; conditions: 300 K, not stated (50 mM phosphate buffers), 50 mM phosphate buffers at different pH, micelle-bound
[1] = L2 peptide free (no L1 or M peptide)
[2] = L2 peptide in the presence of the GldL TMH1 (L1) and GldM TMH (M) peptides at 1:1:1 molar ratio

B1: GldL TMH2 peptide (L2), transmembrane helix 2 of gliding motility / T9SS motor protein GldL (Flavobacterium johnsoniae) (peptide)
chain: KKVMLSIGLLTEALIFALSAFEPVKK
- pKa (Glu49; [1]): 5.54 ± 0.04
- pKa (Glu49; [2]): 5.83 ± 0.02
- pKa (Glu59; [1]): 5.65 ± 0.13
- pKa (Glu59; [2]): 5.83 ± 0.02
